Test results: US20070185028A1, “Compositions and methods for treatment of protein misfolding and protein aggregation diseases” (priority 2004, published 2007)
No end group written: not given here.

Columns and labels:
[1] = as provided by manufacturer (Mimotopes); cited from earlier work
[2] = target: beta amyloid (Homo sapiens, UniProt P05067); test: αB crystallin protein pin array, binding of beta amyloid; settings: immobilized 8-mer peptide; absorption at 450 nm
Excerpt: αB Crystallin peptides that bind the target protein beta-amyloid were identified by screening an αB crystallin protein pin array, which provides a systematic method for evaluating interactions between peptides corresponding to residues 1-175 of human αB crystallin and selected target proteins in a parallel and simultaneous manner.
Peptides were synthesized on derivatized polyethylene pins arranged in a microtiter plate format. Each peptide was 8 amino acids in length and consecutive peptides were offset by 2 amino acids. All peptides were covalently bonded to the surface plastic pins. The first immobilized peptide was 1MDIAIHHP8 and the last peptide was 168PAVTAAPK175 for the human αB crystallin.
After synthesis, the pins were pre-coated at room temperature with 2% Bovine Serum Albumin (BSA), 0.1% Tween-20 and 0.1% Sodium azide in 10 mM phosphate buffered saline pH 7.2 (PBS) for 1 hr, and washed three times for 10 mins each with 10 mM PBS. To screen for binding to the peptides, fixed concentrations of the target protein beta amyloid was dissolved in 10 mM PBS, containing 0.05% Tween-20, added to each well and incubated for 1 hr at room temperature. The pin array was washed three times for 10 mins each with 10 mM PBS, containing 0.05% Tween-20. Monoclonal or polyclonal primary antibodies for the target protein beta amyloid was diluted into PBS buffer, added to each well and incubated for 1 hr at room temperature. Subsequently, the pin array was washed three times for 10 mins each with 10 mM PBS containing 0.05% Tween-20. Anti-rabbit horse-radish peroxidase conjugate secondary antibodies was diluted into PBS buffer, added to each well and incubated for 1 hr at room temperature. The pin array was washed three times for 10 mins each with 10 mM PBS containing 0.05% Tween-20. A chromogenic substrate of horse-radish peroxidase 3,3′,5,5′-Tetramethylbenzidine (TMB) (Pharmingen, San Diego, Calif.) which is colorless was added, and the reaction was carried out for 45 min.
The reaction was stopped by adding 6N sulfuric acid, which changes the color from blue to yellow. The absorption at 450 nm was measured by an ELISA reader (BioTek, Winooski, Vt.).
The pin array was regenerated by sonication in a water bath (VWR Aquasonic, West Chester, Pa.) with 100 mM PBS, containing 1% Sodium dodecyl sulfate (SDS) and 0.1% 2-Mercaptoethanol@60° C. for 10 mins. Next, the pin array was rinsed three times in deionized water, preheated to 60° C. for 30 secs each time, and shaken in water preheated at 60° C. for 30 min. The pin array was then washed with methanol at 60° C. for 15 secs and air-dried and stored @−20° C. for future use. Each target protein was assayed 2-5 times against the human αB crystallin protein pin array peptides to verify the reproducibility of the results. Peptides numbered 5, 7, 8, 9, 13, 19, 22, 23, 24, 27, 35, 38, 45, 51, 52, 56, 57, 61, 66, 71, 72, and 79 in Table 2 reproducibly tested positive in the protein pin assay.

[3] = target: T1, human γD crystallin (Homo sapiens, UniProt P07320); test: αB crystallin protein pin array with γD crystallin; assay type: binding; settings: unheated γD crystallin; similar maxima pre-heated 45° C.
T1 construct: made in house
T1 sequence (P07320 1-174): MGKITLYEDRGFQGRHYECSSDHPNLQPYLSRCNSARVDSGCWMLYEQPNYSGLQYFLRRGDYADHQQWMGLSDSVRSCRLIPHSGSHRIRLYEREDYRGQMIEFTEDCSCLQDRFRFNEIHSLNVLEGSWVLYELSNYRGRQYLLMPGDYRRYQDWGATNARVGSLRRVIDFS
Excerpt: (§1) Synthesis of Pins, binding and detection of peptides binding to ligand proteins. The αB crystallin protein pin array was used to measure the interaction between peptides and chaperone target proteins including bovine βH crystallin, human γD crystallin, equine alcohol dehydrogenase (ADH) and porcine citrate synthase (CS) as described (FIG. 12). Ghosh and Clark, Protein Sci 14: 684-95, 2005.
(§2) Refer to the methods section for detailed protocols. The absorbance corresponding to the blue coloration in each well was measured at λ=450 nm and plotted against the amino acid sequence of the corresponding peptide in that well (FIGS. 13 and 14). Wells containing peptides that have strong interactions with target proteins are dark blue and wells containing peptides that have weak or no interaction with target proteins are light blue or clear.
(§3) The purity of the target proteins used in the pin array assays, bovine βH crystallin, human γD crystallin, equine alcohol dehydrogenase (ADH) and porcine citrate synthase (CS) were determined to be >90% by SDS-PAGE. In addition, primary antibodies for each target protein were specific to that target protein and consequently contaminating proteins that may bind to the peptides will not be detected. Eighty-four sequential and overlapping peptide fragments corresponding to residues 1-175 of human αB crystallin were synthesized employing a simultaneous peptide synthesis strategy developed by Geysen, called Multipin Peptide Synthesis (Mimotopes, San Diego, Calif.). Geysen, Southeast Asian J Trop Med Public Health 21: 523-33, 1990; Chin et al., J Org Chem 62: 538-539, 1997. Peptides were immobilized on derivatized polyethylene pins arranged in a microtiter ELISA plate format. Each peptide was eight amino acids in length and consecutive peptides were offset by two amino acids. All peptides were bound covalently to the surface of the plastic pins. The first peptide was 1MDIAIHHP8 and the last peptide was 168PAVTAAPK175 for human αB crystallin.
(§4) Ghosh and Clark, Protein Sci 14: 684-95, 2005. […] The intensity of the blue color in the wells was measured at 450 nm using an ELISA plate-reader (BioTek, Winooski, Vt.). The intensity of the blue color (plotted on the X-axis) was a measure of the interaction between αB crystallin peptides (plotted on the Y-axis) and target proteins. To measure the effect of temperature on the interactions between interactive peptides and the target proteins, the target proteins were heated in a water-bath at 45° C. for fifteen minutes prior to use. Pin arrays are unable to differentiate between monomers, dimers or oligomers of target proteins that exist in solution. Instead, pin arrays are very sensitive detectors of interactions between individual peptides and the entire population (monomers, dimers or oligomers) of specific target proteins that may exist in solution under specific conditions. Each target protein was assayed two to five times. A single pin array was used for all experiments and no change in interactions was observed after more than thirty repetitions. The last three peptides of the protein pin array, 163REEKPAVT170, 165EKPAVTAA172, 167PAVTAAPK174, correspond to the epitope (163REEKPAVTAAPKK175) recognized by the primary antibody for human αB crystallin. A positive reaction is observed for these three peptides in the absence of human αB crystallin as the ligand due to direct binding of the anti-human αB crystallin antibody to these three peptides. The loss of efficiency for the pin array was measured using this assay. The loss of efficiency for the pin array was determined to be <5% by after more than 30 assays.
When βH crystallin was replaced with γD crystallin, a native protein constituent of lens cytoplasm from the same gene family as the β crystallins, as the ligand in the pin array, twelve interactive sequences were identified (FIG. 14: striped bars). […]

[4] = test system: bovine βH crystallin; test: αB crystallin protein pin array with βH crystallin; assay type: binding; settings: unheated βH crystallin, 23° C.; similar maxima pre-heated 45° C.
Excerpt: as §1, §2, §3, §4
Protein pin arrays enabled the identification of interactive sequences necessary for the chaperone activity of human αB crystallin. Interactions between immobilized 8-mer human αB crystallin peptides and unheated and pre-heated βH crystallin, a natural protein constitute of lens cells, were measured as absorbances at λ=450 nm at 23° C. […]

Row | Sequence | Hydrophobicity [1] | further results
1 | APSWFDTG [Peptide 29] | 0.56 | 
2 | DEHGFISR [Peptide 55] | 0.16 | 
3 | DPLTITSS [Peptide 65] | 0.49 | 
4 | DQFFGEHL [Peptide 13] | 0.47 | binding of beta amyloid in the protein pin assay [2]: positive; absorbance at 450 nm, interaction with γD crystallin [3]: maximum absorbances
5 | DRFSVNLD [Peptide 37] | 0.19 | 
6 | DVDPLTIT [Peptide 64] | 0.55 | 
7 | EELKVKVL [Peptide 44] | 0.32 | 
8 | EERQDEHG [Peptide 53] | −0.47 | 
9 | EFHRKYRI [Peptide 59] | 0.13 | absorbance at 450 nm, interaction with γD crystallin [3]: maximum absorbances
10 | EKDRFSVN [Peptide 36] | −0.13 | 
11 | EKPAVTAA [Peptide 83] | 0.19 | 
12 | EMRLEKDR [Peptide 34] | −0.27 | 
13 | EVHGKHEE [Peptide 50] | −0.18 | 
14 | FDTGLSEM [Peptide 31] | 0.44 | 
15 | FHSPSRLF [Peptide 9] | 0.63 | binding of beta amyloid in the protein pin assay [2]: positive
16 | GDVIEVHG [Peptide 48] | 0.37 | 
17 | GEHLLESD [Peptide 15] | 0.18 | 
18 | GPRKQVSG [Peptide 74] | −0.04 | 
19 | HESPEELK [Peptide 42] | 0.25 | 
20 | HGFISREF [Peptide 56] | 0.48 | binding of beta amyloid in the protein pin assay [2]: positive; absorbance at 450 nm, interaction with γD crystallin [3]: maximum absorbances
21 | HGKHEERQ [Peptide 51] | −0.41 | binding of beta amyloid in the protein pin assay [2]: positive
22 | HLLESDLF [Peptide 16] | 0.7 | 

Row | Sequence | Hydrophobicity [1] | further results
23 | HPWIRRPF [Peptide 4] | 0.67 | 
24 | HRKYRIPA [Peptide 60] | 0.11 | 
25 | IAIHHPWI [Peptide 2] | 1.12 | absorbance at 450 nm, interaction with γD crystallin [3]: maximum absorbances
26 | IHHPWIRR [Peptide 3] | 0.6 | 
27 | IPITREEK [Peptide 80] | 0.16 | 
28 | ITREEKPA [Peptide 81] | −0.02 | 
29 | ITSSLSSD [Peptide 67] | 0.35 | 
30 | KHEERQDE [Peptide 52] | −0.6 | binding of beta amyloid in the protein pin assay [2]: positive
31 | KYRIPADV [Peptide 61] | 0.28 | binding of beta amyloid in the protein pin assay [2]: positive; absorbance at 450 nm, interaction with βH crystallin [4]: Maximum absorbances
32 | LDVKHFSP [Peptide 40] | 0.47 | 
33 | LESDLFPT (also: covalently bound to polyethylene pin) [Peptide 17] | 0.59 | 
34 | LFDQFFGE [Peptide 12] | 0.68 | 
35 | LKVKVLGD [Peptide 45] | 0.39 | binding of beta amyloid in the protein pin assay [2]: positive; absorbance at 450 nm, interaction with βH crystallin [4]: Maximum absorbances
36 | LSEMRLEK [Peptide 33] | 0.16 | 
37 | LSSDGVLT [Peptide 69] | 0.5 | 
38 | MDIAIHHP [Peptide 1] | 0.67 | 
39 | PADVDPLT [Peptide 63] | 0.42 | 
40 | PAVTAAPK [Peptide 84] | 0.36 | 
41 | PERTIPIT [Peptide 78] | 0.49 | 
42 | PPSFLRAP [Peptide 26] | 0.61 | absorbance at 450 nm, interaction with βH crystallin [4]: Maximum absorbances
43 | PTSTSLSP [Peptide 20] | 0.44 | 
44 | QVSGPERT [Peptide 76] | 0.04 | 

Row | Sequence | Hydrophobicity [1] | further results
45 | REEKPAVT [Peptide 82] | −0.1 | 
46 | RIPADVDP [Peptide 62] | 0.28 | 
47 | RKQVSGPE [Peptide 75] | −0.12 | 
48 | RQDEHGFI [Peptide 54] | 0.14 | 
49 | RRPFFPFH [Peptide 6] | 0.62 | 
50 | SDGVLTVN [Peptide 70] | 0.37 | 
51 | SDLFPTST [Peptide 18] | 0.49 | 
52 | SGPERTIP [Peptide 77] | 0.23 | 
53 | SPEELKVK [Peptide 43] | 0.04 | 
54 | SPFYLRPP [Peptide 23] | 0.7 | binding of beta amyloid in the protein pin assay [2]: positive; absorbance at 450 nm, interaction with βH crystallin [4]: Maximum absorbances
55 | SPSRLFDQ [Peptide 10] | 0.27 | 
56 | SRLFDQFF [Peptide 11] | 0.63 | 
57 | SSLSSDGV [Peptide 68] | 0.25 | 
58 | STSLSPFY [Peptide 21] | 0.66 | 
59 | SWFDTGLS [Peptide 30] | 0.64 | 
60 | TGLSEMRL [Peptide 32] | 0.4 | 
61 | VIEVHGKH [Peptide 49] | 0.36 | 
62 | VKHFSPEE [Peptide 41] | 0.19 | 
63 | VKVLGDVI [Peptide 46] | 0.68 | 
64 | VLGDVIEV [Peptide 47] | 0.72 | 
65 | VNGPRKQV [Peptide 73] | 0.04 | 
66 | VNLDVKHF [Peptide 39] | 0.46 | 
